Values quoted from earlier work in paper PMC11084152, “Galf-Specific Neolectins: Towards Promising Diagnostic Tools” (International Journal of Molecular Sciences, 2024).

Design: method as in PMID 26148048
Conditions: β-D-Galf-substituted surface; read-out: functional affinity value

B1: hIntL-1: human intelectin-1, galactofuranosyl-binding lectin used as positive control (protein, UniProt Q8WWA0 19-298, looked up)
Intelectin-1: TDEANTYFKEWTCSSSPSLPRSCKEIKDECPSAFDGLYFLRTENGVIYQTFCDMTSGGGGWTLVASVHENDMRGKCTVGDRWSSQQGSKAVYPEGDGNWANYNTFGSAEAATSDDYKNPGYYDIQAKDLGIWHVPNKSPMQHWRNSSLLRYRTDTGFLQTLGHNLFGIYQKYPVKYGEGKCWTDNGPVIPVVYDFGDAQKTASYYSPYGQREFTAGFVQFRVFNNERAANALCAGMRVTGCNTEHHCIGGGGYFPEASPQQCGDFSGFDWSGYGTHVGYS
Kd: 85 ± 14 nM
